60 variants from the Human Domainome abundance scans (Beltran et al. 2025) can be followed below.

B1: Cullin-9, residues 2234 to 2275; numbered along this chain, Q8IWT3 (parent)
chain: KRCPSCQAPIEKNEGCLHMTCAKCNHGFCWRCLKSWKPNHKD

± gives the uncertainty stated by the source.

In this series the parent is B1. Nature of the series: abundance fitness (aPCA) (normalised: wild type 0, dead -1); higher = more abundant; growth selection in yeast, the domain comes from the species named. The following applies: Homo sapiens.
In the case of KRCPSCQAPIEKGEGCLHMTCAKCNHGFCWRCLKSWKPNHKD, the abundance fitness was -0.059 ± 0.07.
On to KRCPSCQAPIEKLEGCLHMTCAKCNHGFCWRCLKSWKPNHKD, for which the abundance fitness was determined as 0.229 ± 0.092.
Regarding KRCPSCQAPIEKNEGCLHMTCAKCNHGFCFRCLKSWKPNHKD, the abundance fitness was -0.162 ± 0.14.
Take KRCPSCQAPIEKNEGCLHMTCAKCNHGFCPRCLKSWKPNHKD: the abundance fitness is 0.134 ± 0.11.
As for KRCPSCQAPIEKNEGCLHMTCAKCNHGFCKRCLKSWKPNHKD, the abundance fitness was -0.366 ± 0.15.
As to KRCPSCQAPIEKNEGCLHMTEAKCNHGFCWRCLKSWKPNHKD, the abundance fitness is -0.137 ± 0.096.
The result for KRCPSCQAPIEKNEGCLHMTCAKCNHGFCWYCLKSWKPNHKD reads 0.212 ± 0.17.
The result for KRCPSCQAPIEKNEGCLHMTCAKCNHGFCWICLKSWKPNHKD reads -0.072 ± 0.17; that for KRCPSCQAPIEKNEGCLHMTCAKCNHGFCWKCLKSWKPNHKD, 0.371 ± 0.11; that for KRCPSCQAPIEKNEGCLHMTCAKCNHGFCWRCLKSDKPNHKD, 0.255 ± 0.12.
For the variant KRCPSCQAPIEKNEGCLHMTCAKCNHGFCWRCLKSHKPNHKD, the abundance fitness is -0.015 ± 0.47.
In the case of KRCPSCQAPIEKNEGCLHMTCAKCNHGFCWRCLKSQKPNHKD, the abundance fitness worked out at 0.082 ± 0.13.
The figure for KRCPSCQAPIEKNEGCLHMGCAKCNHGFCWRCLKSWKPNHKD is -0.288 ± 0.083; for KRCPSCQAPIEKNEGCLHMTCAKGNHGFCWRCLKSWKPNHKD it is -0.268 ± 0.074.
The result for KRCPSCQAPIEKNEGCLHMTCAKMNHGFCWRCLKSWKPNHKD reads -0.574 ± 0.2; that for KRCPSCQAPIEKNEGCLHMTCAKWNHGFCWRCLKSWKPNHKD, -0.784 ± 0.11; that for KRCPSCQAPIEKNEGGLHMTCAKCNHGFCWRCLKSWKPNHKD, 0.55 ± 0.069.
Turning to KRCPSCQAPIEKNEGSLHMTCAKCNHGFCWRCLKSWKPNHKD, the abundance fitness was found to be 0.422 ± 0.083.
Turning to KRCPSCQAPIEKNEGYLHMTCAKCNHGFCWRCLKSWKPNHKD, the abundance fitness was -0.032 ± 0.15.
In the case of KRCPSCQAPIEKNEGVLHMTCAKCNHGFCWRCLKSWKPNHKD, the abundance fitness was 0.449 ± 0.085.
KRCPSCQAPIEKNEGCAHMTCAKCNHGFCWRCLKSWKPNHKD: the abundance fitness is -0.053 ± 0.079.
The figure for KRCPSCQAPIEKNEGCNHMTCAKCNHGFCWRCLKSWKPNHKD is -0.858 ± 0.21; for KRCPSCQAPIEKNEGCGHMTCAKCNHGFCWRCLKSWKPNHKD it is -0.062 ± 0.075; for KRCPSCQAPIEKNEGCLHMTCAKCNHGFCWRCLCSWKPNHKD it is -0.341 ± 0.13.
For the variant KRCPSCQAQIEKNEGCLHMTCAKCNHGFCWRCLKSWKPNHKD, the abundance fitness worked out at 0.014 ± 0.1.
Take KRCPSCQAEIEKNEGCLHMTCAKCNHGFCWRCLKSWKPNHKD: the abundance fitness worked out at 0.051 ± 0.092.
The result for KRCPSCQASIEKNEGCLHMTCAKCNHGFCWRCLKSWKPNHKD reads -0.347 ± 0.095.
As for KRCPSCQANIEKNEGCLHMTCAKCNHGFCWRCLKSWKPNHKD, the abundance fitness is -0.026 ± 0.26.
For the variant KRCPSCQAWIEKNEGCLHMTCAKCNHGFCWRCLKSWKPNHKD, the abundance fitness worked out at 0.335 ± 0.14.
For KRCPSCQAPIEKNEGCLHMTCSKCNHGFCWRCLKSWKPNHKD, the abundance fitness was -0.202 ± 0.12.
The result for KRCPSCQAPIEKNEGCLHMTCKKCNHGFCWRCLKSWKPNHKD reads -0.333 ± 0.17; that for KRCPSCQAPIEKNEGCLHMTCMKCNHGFCWRCLKSWKPNHKD, 0.082 ± 0.16.
The figure for KRCPSCCAPIEKNEGCLHMTCAKCNHGFCWRCLKSWKPNHKD is -0.025 ± 0.11; for KRCPSCSAPIEKNEGCLHMTCAKCNHGFCWRCLKSWKPNHKD it is -0.406 ± 0.17.
The result for KRCPSCIAPIEKNEGCLHMTCAKCNHGFCWRCLKSWKPNHKD reads -0.346 ± 0.34; that for KRCPSCVAPIEKNEGCLHMTCAKCNHGFCWRCLKSWKPNHKD, -0.198 ± 0.11; that for KCCPSCQAPIEKNEGCLHMTCAKCNHGFCWRCLKSWKPNHKD, 0.07 ± 0.18.
Consider KPCPSCQAPIEKNEGCLHMTCAKCNHGFCWRCLKSWKPNHKD, for which the abundance fitness was -0.209 ± 0.13.
The result for KRCPSCQAPIEKNEGCLHMTCAKCNHGFCWRCLKSWKPNMKD reads 0.13 ± 0.1; that for KRCPSCQAPIEKNEGCLHMTCAKCNHGFCWRCLKSWKPNGKD, -0.102 ± 0.073.
The figure for KRCPSCQAPNEKNEGCLHMTCAKCNHGFCWRCLKSWKPNHKD is -0.534 ± 0.21.
On to KRCPSCQAPGEKNEGCLHMTCAKCNHGFCWRCLKSWKPNHKD, for which the abundance fitness was -0.303 ± 0.081.
The result for KRCPSCQAPDEKNEGCLHMTCAKCNHGFCWRCLKSWKPNHKD reads -0.011 ± 0.09.
As for KRCPSCQAPREKNEGCLHMTCAKCNHGFCWRCLKSWKPNHKD, the abundance fitness was -0.534 ± 0.089.
With KRCPSCQAPIEKNEGCLHMTCAKCEHGFCWRCLKSWKPNHKD, the abundance fitness was -0.045 ± 0.087.
Consider KRCPSCQAPIEKNEGCLHMTCAKCCHGFCWRCLKSWKPNHKD, for which the abundance fitness came out at 0.126 ± 0.12.
As for KRCPSCQAPIEKNEGCLHMTCAKCVHGFCWRCLKSWKPNHKD, the abundance fitness was -0.265 ± 0.088.
As to KRCPSCQAPIEKNEGCLHMTCAKCGHGFCWRCLKSWKPNHKD, the abundance fitness came out at 0.208 ± 0.077.
For the variant KRCPSCQAPIEKNEGCLHMTCAKCNHGCCWRCLKSWKPNHKD, the abundance fitness was -0.189 ± 0.14.
As to KRCPSCQAPIEKNEGCLHMTCAKCNHGECWRCLKSWKPNHKD, the abundance fitness was -0.074 ± 0.089.
As for KRCPSCQAPIEKNEGCLHMTCAKCNHGYCWRCLKSWKPNHKD, the abundance fitness is -0.049 ± 0.21.
In the case of KRCPSCQAPIEKNEGCLHMTCAKCNHGWCWRCLKSWKPNHKD, the abundance fitness is -0.255 ± 0.091.
The figure for KRCPSCQAPIEKNEGCLHMTCAKCNHGFCWRCLKSWKMNHKD is -0.364 ± 0.2; for KRCPSCQAPIEKNEGCLHMTCAKCNHGFCWRCLKSWKHNHKD it is -0.867 ± 0.34; for KRCPSCQAPIEKNEGCLHMTCAKCNHGFCWRCLKSWKRNHKD it is -0.383 ± 0.077.
On to KRCPSCQAPIEKNEGCLHMTCAKCNHGFCWRCLKSWKDNHKD, for which the abundance fitness is -0.553 ± 0.28.
Regarding KRCPSCQAPIEKNEGCLHMTCAKCNHGFCWRCLKSWKPQHKD, the abundance fitness was -0.152 ± 0.11.
The result for KRCPSCQAPIEKNEGCLHMTCAKCNHGFCWRCLKYWKPNHKD reads -0.463 ± 0.23.
Regarding KRCPSCQAPIEKNEGCLHMTCAKCNHGFCWRCLKNWKPNHKD, the abundance fitness is -0.092 ± 0.33.
KRCPSCQAPIEKNEGCLHMTCAKCNHGFCWRCLKDWKPNHKD: the abundance fitness amounted to 0.003 ± 0.2.
